T1: MBP–FD(T282E), maltose-binding protein-fused phospho-mimic mutant FD (Arabidopsis thaliana, UniProt Q84JK2 2-285, T282E)
T1 construct: FD, bZIP transcription factor, Arabidopsis thaliana; residues 2-285; codon-optimised for E. coli; also called MBP-FD^(2–285 (T282E)); source: E. coli, purified (Ni-NTA, size-exclusion chromatography); not shown: MBP, N-terminal, kept
T1 sequence (looked up): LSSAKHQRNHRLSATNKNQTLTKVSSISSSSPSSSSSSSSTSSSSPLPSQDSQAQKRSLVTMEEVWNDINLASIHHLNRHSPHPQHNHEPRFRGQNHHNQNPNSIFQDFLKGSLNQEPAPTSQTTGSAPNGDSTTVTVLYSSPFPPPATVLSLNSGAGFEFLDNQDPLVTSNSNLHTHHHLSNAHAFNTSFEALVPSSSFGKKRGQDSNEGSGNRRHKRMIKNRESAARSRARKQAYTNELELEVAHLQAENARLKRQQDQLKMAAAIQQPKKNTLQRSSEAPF

B1: MBP–FDc(T282E), N-terminal MBP-fused, truncated FD (amino acids 215–285) (domain or fragment, Arabidopsis thaliana, UniProt Q84JK2 215-285, looked up)
chain: NRRHKRMIKNRESAARSRARKQAYTNELELEVAHLQAENARLKRQQDQLKMAAAIQQPKKNTLQRSSEAPF
notes: FD, Arabidopsis thaliana; also called MBP-FDc^(215–285 (T282E)); source: E. coli, purified; not shown: MBP, N-terminal, kept
B2: MBP–FDc(T282E) Mu6 (L263A) (domain or fragment, Arabidopsis thaliana, UniProt Q84JK2 215-285, looked up)
chain: B1 chain with L49A
notes: FD, Arabidopsis thaliana; amino acids 215–285; source: E. coli, purified; not shown: MBP, N-terminal, kept
B3: MBP–FDc(T282E) Mu2 (Y238A,E243A) (domain or fragment, Arabidopsis thaliana, UniProt Q84JK2 215-285, looked up)
chain: B1 chain with Y24A, E29A
notes: as for B2
B4: MBP–FDc(T282E) Mu3 (L242A) (domain or fragment, Arabidopsis thaliana, UniProt Q84JK2 215-285, looked up)
chain: B1 chain with L28A
notes: FD, Arabidopsis thaliana; amino acids 215–285; L242A is printed for Mu3 only in the name of the transgene gFD::3HA-3Flag-FD^Mu3_L242A; source: E. coli, purified; not shown: MBP, N-terminal, kept
B5: GRF7 (14-3-3ν), recombinant (natural protein, Arabidopsis thaliana, UniProt Q96300 1-265, looked up)
chain: MSSSREENVYLAKLAEQAERYEEMVEFMEKVAKTVDTDELTVEERNLLSVAYKNVIGARRASWRIISSIEQKEESRGNDDHVSIIKDYRGKIETELSKICDGILNLLDSHLVPTASLAESKVFYLKMKGDYHRYLAEFKTGAERKEAAESTLVAYKSAQDIALADLAPTHPIRLGLALNFSVFYYEILNSPDRACSLAKQAFDEAISELDTLGEESYKDSTLIMQLLRDNLTLWNSDINDEAGGDEIKEASKHEPEEGKPAETGQ
notes: GRF7 (14-3-3ν), Arabidopsis thaliana; cloned into pMAL-c5X-His or a modified pMAL-c5X vector; also called GRF7-6His; source: E. coli, purified (Ni-NTA, size-exclusion chromatography)

The target in series [1] is B5. The series can be described thus: SEC-MALS; MBP–FDc(T282E) or its mutants with GRF7; 25 mM Tris-HCl pH 8.0, 160 mM NaCl, 2% glycerol; Superdex 200. To be noted: both partners purified.
Series [2] concerns the molecule itself. The series can be described thus: SEC-MALS; MBP–FDc(T282E) alone at low concentration; 25 mM Tris-HCl pH 8.0, 160 mM NaCl, 2% glycerol; Superdex 200. For orientation: In gel filtration, larger molecules generally elute earlier.
Series [3] concerns the molecule itself. The series is described as follows: SEC-MALS; MBP–FDc(T282E) or its mutants with GRF7; 25 mM Tris-HCl pH 8.0, 160 mM NaCl, 2% glycerol; Superdex 200.
The target of series [4] is T1, MBP–FD(T282E), maltose-binding …. The series can be described thus: SEC; gel filtration of mixed purified proteins without DNA, fractions analysed on gel. To be noted: both partners purified.

This note sets out measurements from article PMC12711580, “Florigen activation complex forms via multifaceted assembly in Arabidopsis” (Nature, 2025).

Positions count from the first letter of the chain named. Numbers in names are those of the source.

For orientation: stoichiometry N means a count of units in the complex or per binding partner.

On to B1, for which the binding result in series [1] was “binds”. Further, the “stoichiometry N” value in series [2] is 2.
With B2, the binding result in series [3] and in series [1] was “binds” each time.
In the case of B3, the binding result in series [3] and in series [1] was “binds” each time.
For B4, the “stoichiometry N” value in series [1] was 1 copy of FDc(T282E) per GRF7 dimer.
Turning to B5, the binding result in series [4] is on record as “binds”.
